Here are results for eight molecules from US20240018502A1.

B1: MTSP-1 H40R/I41H/Y60gF/F97D/F99L/C122S/Q175M/Q192G/D217W/K224R (enzyme)
chain: VVGGTDADEGEWPWQVSLHALGQGRHCGASLISPNWLVSAAHCYIDDRGFRFSDPTQWTAFLGLHDQSQRSAPGVQERRLKRIISHPFFNDDTLDYDIALLELEKPAEYSSMVRPISLPDASHVFPAGKAIWVTGWGHTQYGGTGALILQKGEIRVINQTTCENLLPQMITPRMMCVGFLSGGVDSCGGDSGGPLSSVEADGRIFQAGVVSWGWGCAQRNRPGVYTRLPLFRDWIKENTGV
B2: MTSP-1 H40K/I41L/Y60gF/F97D/F99L/C122S/G151N/Q175R (enzyme)
chain: VVGGTDADEGEWPWQVSLHALGQGKLCGASLISPNWLVSAAHCYIDDRGFRFSDPTQWTAFLGLHDQSQRSAPGVQERRLKRIISHPFFNDDTLDYDIALLELEKPAEYSSMVRPISLPDASHVFPAGKAIWVTGWGHTQYGGTNALILQKGEIRVINQTTCENLLPQRITPRMMCVGFLSGGVDSCQGDSGGPLSSVEADGRIFQAGVVSWGDGCAQRNKPGVYTRLPLFRDWIKENTGV
B3: MTSP-1 H40R/I41H/Y60gN/F97D/F99L/C122S/G151N/Q175K/Q192S/D217S/K224L (enzyme)
chain: VVGGTDADEGEWPWQVSLHALGQGRHCGASLISPNWLVSAAHCYIDDRGFRNSDPTQWTAFLGLHDQSQRSAPGVQERRLKRIISHPFFNDDTLDYDIALLELEKPAEYSSMVRPISLPDASHVFPAGKAIWVTGWGHTQYGGTNALILQKGEIRVINQTTCENLLPQKITPRMMCVGFLSGGVDSCSGDSGGPLSSVEADGRIFQAGVVSWGSGCAQRNLPGVYTRLPLFRDWIKENTGV
B4: MTSP-1 H40R/I41H/Y60gL/F97D/F99L/C122S/G151N (enzyme)
chain: VVGGTDADEGEWPWQVSLHALGQGRHCGASLISPNWLVSAAHCYIDDRGFRLSDPTQWTAFLGLHDQSQRSAPGVQERRLKRIISHPFFNDDTLDYDIALLELEKPAEYSSMVRPISLPDASHVFPAGKAIWVTGWGHTQYGGTNALILQKGEIRVINQTTCENLLPQQITPRMMCVGFLSGGVDSCQGDSGGPLSSVEADGRIFQAGVVSWGDGCAQRNKPGVYTRLPLFRDWIKENTGV
B5: MTSP-1 H40R/I41H/Y60gH/F97D/F99L/C122S/Q175M/Q192G/D217I/K224L (enzyme)
chain: VVGGTDADEGEWPWQVSLHALGQGRHCGASLISPNWLVSAAHCYIDDRGFRHSDPTQWTAFLGLHDQSQRSAPGVQERRLKRIISHPFFNDDTLDYDIALLELEKPAEYSSMVRPISLPDASHVFPAGKAIWVTGWGHTQYGGTGALILQKGEIRVINQTTCENLLPQMITPRMMCVGFLSGGVDSCGGDSGGPLSSVEADGRIFQAGVVSWGIGCAQRNLPGVYTRLPLFRDWIKENTGV
B6: MTSP-1 H40K/I41M/Y60gG/F97D/F99L/C122S/G151N/Q175R/Q192R/D217V/K224S (enzyme)
chain: VVGGTDADEGEWPWQVSLHALGQGKMCGASLISPNWLVSAAHCYIDDRGFRGSDPTQWTAFLGLHDQSQRSAPGVQERRLKRIISHPFFNDDTLDYDIALLELEKPAEYSSMVRPISLPDASHVFPAGKAIWVTGWGHTQYGGTNALILQKGEIRVINQTTCENLLPQRITPRMMCVGFLSGGVDSCRGDSGGPLSSVEADGRIFQAGVVSWGVGCAQRNSPGVYTRLPLFRDWIKENTGV
B7: MTSP-1 H40K/I41M/Y60gF/F97D/F99L/C122S/G151N/Q175L/Q192D (enzyme)
chain: VVGGTDADEGEWPWQVSLHALGQGKMCGASLISPNWLVSAAHCYIDDRGFRFSDPTQWTAFLGLHDQSQRSAPGVQERRLKRIISHPFFNDDTLDYDIALLELEKPAEYSSMVRPISLPDASHVFPAGKAIWVTGWGHTQYGGTNALILQKGEIRVINQTTCENLLPQLITPRMMCVGFLSGGVDSCDGDSGGPLSSVEADGRIFQAGVVSWGDGCAQRNKPGVYTRLPLFRDWIKENTGV
B8: MTSP-1 H40R/I41H/F97D/C122S/G151N/Q175M/Q192A/D217S/K224R (enzyme)
chain: VVGGTDADEGEWPWQVSLHALGQGRHCGASLISPNWLVSAAHCYIDDRGFRYSDPTQWTAFLGLHDQSQRSAPGVQERRLKRIISHPFFNDDTFDYDIALLELEKPAEYSSMVRPISLPDASHVFPAGKAIWVTGWGHTQYGGTNALILQKGEIRVINQTTCENLLPQMITPRMMCVGFLSGGVDSCAGDSGGPLSSVEADGRIFQAGVVSWGSGCAQRNRPGVYTRLPLFRDWIKENTGV

Chain of plasma purified human complement protein C3 (human) (P01024 23-667, chain 1 of 2): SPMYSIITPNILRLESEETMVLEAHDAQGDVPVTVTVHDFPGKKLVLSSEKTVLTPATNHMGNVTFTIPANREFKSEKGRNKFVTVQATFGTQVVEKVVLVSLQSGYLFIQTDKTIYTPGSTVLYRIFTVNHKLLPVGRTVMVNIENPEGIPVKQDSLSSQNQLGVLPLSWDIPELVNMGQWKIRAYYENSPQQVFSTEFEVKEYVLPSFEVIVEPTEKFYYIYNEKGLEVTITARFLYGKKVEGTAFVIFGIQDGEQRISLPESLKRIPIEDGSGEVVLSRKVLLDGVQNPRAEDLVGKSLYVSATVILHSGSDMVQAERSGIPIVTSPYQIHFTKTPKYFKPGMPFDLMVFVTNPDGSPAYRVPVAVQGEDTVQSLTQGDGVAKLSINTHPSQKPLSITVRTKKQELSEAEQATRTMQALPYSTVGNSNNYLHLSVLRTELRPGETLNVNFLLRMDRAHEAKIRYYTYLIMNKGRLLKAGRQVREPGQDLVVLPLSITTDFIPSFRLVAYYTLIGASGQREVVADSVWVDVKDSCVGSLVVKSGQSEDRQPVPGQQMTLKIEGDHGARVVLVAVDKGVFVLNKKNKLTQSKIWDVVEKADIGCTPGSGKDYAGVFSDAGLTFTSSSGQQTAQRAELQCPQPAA
Chain of plasma purified human complement protein C3 (human) (P01024 672-1663, chain 2 of 2): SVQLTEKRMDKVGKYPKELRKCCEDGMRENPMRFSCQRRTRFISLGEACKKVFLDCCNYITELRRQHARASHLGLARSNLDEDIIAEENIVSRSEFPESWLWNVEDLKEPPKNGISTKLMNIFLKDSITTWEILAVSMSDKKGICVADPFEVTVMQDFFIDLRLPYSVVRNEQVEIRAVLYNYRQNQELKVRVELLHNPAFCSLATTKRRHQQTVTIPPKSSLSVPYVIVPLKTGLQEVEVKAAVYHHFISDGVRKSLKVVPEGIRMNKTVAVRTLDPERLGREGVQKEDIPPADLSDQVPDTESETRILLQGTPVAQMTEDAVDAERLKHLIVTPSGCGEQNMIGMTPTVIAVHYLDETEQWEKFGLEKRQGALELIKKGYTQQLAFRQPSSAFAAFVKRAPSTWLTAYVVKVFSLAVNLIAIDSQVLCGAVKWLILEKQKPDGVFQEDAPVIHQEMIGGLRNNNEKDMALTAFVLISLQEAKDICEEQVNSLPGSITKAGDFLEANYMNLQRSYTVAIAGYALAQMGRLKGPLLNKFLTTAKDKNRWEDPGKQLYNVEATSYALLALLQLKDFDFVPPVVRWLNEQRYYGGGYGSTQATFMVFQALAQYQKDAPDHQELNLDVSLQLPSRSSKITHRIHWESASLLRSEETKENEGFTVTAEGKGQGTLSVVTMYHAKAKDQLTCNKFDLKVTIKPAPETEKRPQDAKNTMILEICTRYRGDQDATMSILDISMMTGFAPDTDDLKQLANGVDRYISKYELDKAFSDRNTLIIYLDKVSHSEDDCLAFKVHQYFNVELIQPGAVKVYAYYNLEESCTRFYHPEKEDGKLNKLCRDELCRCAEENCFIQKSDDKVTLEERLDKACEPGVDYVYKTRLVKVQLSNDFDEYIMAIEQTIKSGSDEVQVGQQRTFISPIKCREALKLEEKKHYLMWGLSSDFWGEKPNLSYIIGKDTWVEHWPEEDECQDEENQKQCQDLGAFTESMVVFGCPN

This experiment has as its target plasma purified human complement protein C3 (human) (UniProt P01024). Briefly: cell-based or functional assay.
Consider B1, for which the EC50 of hC3 cleavage is 9.92 nM.

In turn, B2 yielded an EC50 of hC3 cleavage of 237 nM.

Molecule B3 gave an EC50 of hC3 cleavage of 187 nM.

In the case of B4, the EC50 of hC3 cleavage came to 54.9 nM.

B5 yielded an EC50 of hC3 cleavage of 3.72 nM.

In turn, B6 displayed an EC50 of hC3 cleavage of 509 nM.

Molecule B7 displayed an EC50 of hC3 cleavage of 589 nM.

Molecule B8 returned an EC50 of hC3 cleavage of 470 nM.
